Assay results from patent publication US20240352102A1 (UNITED STATES GOVERNMENT AS REPRESENTED BY THE DEPARTMENT …, published 2024).

Columns and labels:
[1] = biological target: T1, recombinant human tau incubated with poly(A) RNA (human, UniProt P10636-7 1-412, limits assumed); assay: dot blot, 20 ng tau, 8 replicates, reference heparin incubated tau
T1 construct: Oligomeric complex with RNA; also called tau/RNA complexes; TRCs
Description: To control for other polyanions inducing the TRC35+ tau conformation, recombinant protein was purified from E. coli overexpressing human tau. Twenty ng of purified tau proteins was incubated with poly(A) RNA or Heparin as shown in representative blots above. In total, 8 replicate samples were dot blotted with mAb TRC35 (FIG. 11A) and SP70 total tau mAb (FIG. 11B) as previously described for FIG. 1.

[2] = biological target: T2, Alzheimer's disease tau (ADtau) fibrillar material (human, UniProt P10636-8 2-441, limits assumed, pathological tau with phosphorylation (pS422 detected); sites otherwise not stated); assay: native dot blot densitometry, 20 ng per dot, reference recombinant tau
T2 construct: Aggregated, brain-derived material; also called detergent insoluble pathological tau purified from Alzheimer's disease brain tissue; Alzheimer's disease derived tau
Description: Shown is a native protein dot blot loaded with equivalent mass of E. coli derived recombinant tau (top row, 20 ng) or Alzheimer's disease derived tau (ADtau) (bottom row, 20 ng). […] C57BL/6 (B6) mouse immunostaining included as controls. Insets depict TRC35 immunoreactivity at higher magnification in the CA1. Scale bar=500 um at low power magnification and 50 μm in the insets.
Characterization of TRC35 monoclonal antibodies. TRC35 monoclonal antibodies were used to dot blot equivalent amounts (20 ng) E. coli-expressed native recombinant tau protein and Alzheimer's disease tau (ADtau) fibrillar material. […] Protein preparations were not denatured prior to blotting to preserve native conformations expected of a conformation dependent monoclonal antibody. Dot blots were performed using the Bio-Dot Microfiltration Apparatus as recommended by the manufacturer (Bio-Rad, catalog #170-6545). Membranes were blocked in blocking solution [20 mM Tris, 500 mM NaCl, 1% bovine serum albumin (w/v) | and probed with TRC35 at 1:50,000 as primary antibody in TTBS buffer [20 mM Tris, 500 mM NaCl, 1% bovine serum albumin (w/v), 0.5% (w/v) Tween20]. Blots were washed 3 times in TTBS to remove excess primary antibody. […] Immunoreactivity was measured using Clarity Western ECL reagents (Bio-Rad) Images were scanned and quantitated using LI-COR Image Studio software.

Peptide_073 = biological target: T3, Peptide_073; assay: peptide microarray
T3 peptide: VTSKCGSLGNIHHKP

Peptide_063 = biological target: T4, Peptide_063; assay: peptide microarray
T4 peptide: INKKLDLSNVQSKCG

Peptide_074 = biological target: T5, Peptide_074; assay: peptide microarray
T5 peptide: CGSLGNIHHKPGGGQ

Peptide_052 = biological target: T6, Peptide_052; assay: peptide microarray
T6 peptide: KSPSSAKSRLQTAPV

Peptide_054 = biological target: T7, Peptide_054; assay: peptide microarray
T7 peptide: RLQTAPVPMPDLKNV

Peptide_042 = biological target: T8, Peptide_042; assay: peptide microarray
T8 peptide: RSGYSSPGSPGTPGS

Peptide_064 = biological target: T9, Peptide_064; assay: peptide microarray
T9 peptide: LDLSNVQSKCGSKDN

Peptide_044 = biological target: T10, Peptide_044; assay: peptide microarray
T10 peptide: SPGTPGSRSRTPSLP

Peptide_067 = biological target: T11, Peptide_067; assay: peptide microarray
T11 peptide: KDNIKHVPGGGSVQI

Peptide_069 = biological target: T12, Peptide_069; assay: peptide microarray
T12 peptide: GGGSVQIVYKPVDLS

Peptide_058 = biological target: T13, Peptide_058; assay: peptide microarray
T13 peptide: SKIGSTENLKHQPGG

Peptide_056 = biological target: T14, Peptide_056; assay: peptide microarray
T14 peptide: MPDLKNVKSKIGSTE

Peptide_072 = biological target: T15, Peptide_072; assay: peptide microarray
T15 peptide: DLSKVTSKCGSLGNI

Peptide_043 = biological target: T16, Peptide_043; assay: peptide microarray
T16 peptide: SSPGSPGTPGSRSRT

Peptide_039 = biological target: T17, Peptide_039; assay: peptide microarray
T17 peptide: PPSSGEPPKSGDRSG

Peptide_055 = biological target: T18, Peptide_055; assay: peptide microarray
T18 peptide: APVPMPDLKNVKSKI

Peptide_053 = biological target: T19, Peptide_053; assay: peptide microarray
T19 peptide: SAKSRLQTAPVPMPD

Peptide_065 = biological target: T20, Peptide_065; assay: peptide microarray
T20 peptide: NVQSKCGSKDNIKHV

Peptide_038 = biological target: T21, Peptide_038; assay: peptide microarray
T21 peptide: APKTPPSSGEPPKSG

Peptide_017 = biological target: T22, Peptide_017; assay: peptide microarray
T22 peptide: DAKSTPTAEAEEAGI

Peptide_015 = biological target: T23, Peptide_015; assay: peptide microarray
T23 peptide: EEPGSETSDAKSTPT

Peptide_018 = biological target: T24, Peptide_018; assay: peptide microarray
T24 peptide: TPTAEAEEAGIGDTP

Peptide_023 = biological target: T25, Peptide_023; assay: peptide microarray
T25 peptide: AAGHVTQARMVSKSK

Peptide_012 = biological target: T26, Peptide_012; assay: peptide microarray
T26 peptide: ESPLQTPTEDGSEEP

Peptide_007 = biological target: T27, Peptide_007; assay: peptide microarray
T27 peptide: DQGGYTMHQDQEGDT

Peptide_008 = biological target: T28, Peptide_008; assay: peptide microarray
T28 peptide: YTMHQDQEGDTDAGL

Peptide_016 = biological target: T29, Peptide_016; assay: peptide microarray
T29 peptide: SETSDAKSTPTAEAE

Peptide_005 = biological target: T30, Peptide_005; assay: peptide microarray
T30 peptide: TYGLGDRKDQGGYTM

Peptide_022 = biological target: T31, Peptide_022; assay: peptide microarray
T31 peptide: LEDEAAGHVTQARMV

Peptide_011 = biological target: T32, Peptide_011; assay: peptide microarray
T32 peptide: AGLKESPLQTPTEDG

T2 sequence (P10636 other isoform, or with tags, fused parts or gaps limits assumed): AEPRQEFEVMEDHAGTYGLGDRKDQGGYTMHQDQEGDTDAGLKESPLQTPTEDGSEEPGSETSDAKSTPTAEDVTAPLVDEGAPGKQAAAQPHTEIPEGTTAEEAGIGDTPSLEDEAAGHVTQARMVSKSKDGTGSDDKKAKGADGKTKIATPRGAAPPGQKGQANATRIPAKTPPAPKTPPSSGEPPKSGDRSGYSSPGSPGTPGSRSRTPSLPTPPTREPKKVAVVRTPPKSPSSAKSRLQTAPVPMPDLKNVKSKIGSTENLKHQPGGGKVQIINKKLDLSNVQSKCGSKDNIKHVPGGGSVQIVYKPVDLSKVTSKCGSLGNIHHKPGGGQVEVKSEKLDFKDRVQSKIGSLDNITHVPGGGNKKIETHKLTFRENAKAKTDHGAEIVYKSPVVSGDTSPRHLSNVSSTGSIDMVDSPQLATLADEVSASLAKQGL
T1 sequence (P10636 other isoform, or with tags, fused parts or gaps limits assumed): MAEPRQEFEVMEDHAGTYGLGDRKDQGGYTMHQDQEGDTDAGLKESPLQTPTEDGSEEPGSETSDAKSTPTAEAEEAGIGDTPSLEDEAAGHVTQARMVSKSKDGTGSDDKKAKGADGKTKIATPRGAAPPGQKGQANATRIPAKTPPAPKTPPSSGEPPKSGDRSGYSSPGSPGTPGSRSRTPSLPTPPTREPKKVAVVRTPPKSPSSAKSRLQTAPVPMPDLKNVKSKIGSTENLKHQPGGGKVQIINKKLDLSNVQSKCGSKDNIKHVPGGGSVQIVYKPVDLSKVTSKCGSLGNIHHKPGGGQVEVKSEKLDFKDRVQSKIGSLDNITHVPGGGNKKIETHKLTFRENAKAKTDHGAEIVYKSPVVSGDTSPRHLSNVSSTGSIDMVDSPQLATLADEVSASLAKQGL

fold TRC35 signal normalized to SP70, relative to heparin [1]: ~2 fold | fold selectivity for ADtau over native tau [2]: 8 fold | binding result (Peptide_073): no binding (tested: 1 ug/ml) | binding result (Peptide_063): no binding (tested: 1 ug/ml) | binding result (Peptide_074): no binding (tested: 1 ug/ml) | binding result (Peptide_052): no binding (tested: 1 ug/ml) | binding result (Peptide_054): no binding (tested: 1 ug/ml) | binding result (Peptide_042): no binding (tested: 1 ug/ml) | binding result (Peptide_064): no binding (tested: 1 ug/ml) | binding result (Peptide_044): no binding (tested: 1 ug/ml) | binding result (Peptide_067): no binding (tested: 1 ug/ml) | binding result (Peptide_069): no binding (tested: 1 ug/ml) | binding result (Peptide_058): no binding (tested: 1 ug/ml) | binding result (Peptide_056): no binding (tested: 1 ug/ml) | binding result (Peptide_072): no binding (tested: 1 ug/ml) | binding result (Peptide_043): no binding (tested: 1 ug/ml) | binding result (Peptide_039): no binding (tested: 1 ug/ml) | binding result (Peptide_055): no binding (tested: 1 ug/ml) | binding result (Peptide_053): no binding (tested: 1 ug/ml) | binding result (Peptide_065): no binding (tested: 1 ug/ml) | binding result (Peptide_038): no binding (tested: 1 ug/ml) | binding result (Peptide_017): no binding (tested: 1 ug/ml) | binding result (Peptide_015): no binding (tested: 1 ug/ml) | binding result (Peptide_018): no binding (tested: 1 ug/ml) | binding result (Peptide_023): no binding (tested: 1 ug/ml) | binding result (Peptide_012): no binding (tested: 1 ug/ml) | binding result (Peptide_007): no binding (tested: 1 ug/ml) | binding result (Peptide_008): no binding (tested: 1 ug/ml) | binding result (Peptide_016): no binding (tested: 1 ug/ml) | binding result (Peptide_005): no binding (tested: 1 ug/ml) | binding result (Peptide_022): no binding (tested: 1 ug/ml) | binding result (Peptide_011): no binding (tested: 1 ug/ml)
B1: mAb TRC35 (antibody, V domains shown)
VH: QVQLQQPGTELVKPGASVKLSCKASGYTFTSYWLQWVKQRPGQGLEWIGEIDPSDSYTNYNQKFKGKATLTVDTSSSTAYMQLSSLTSEDSAVYYCATLTGSWGQGTTLAVSS
VL: DVLLTQTPLSLPVSLGDQASISCRASQSIVDSNGNTFLEWYLQKSGQSPKVLIYKVSNRFSGVPDRFSGRGSGTDFTLKISRVEAEDLGVYYCFQGSHVPYTFGGGTKLEIK
notes: Mouse hybridoma monoclonal antibody raised in tau knockout mice against tau/poly(A) RNA complexes; IgG1 isotype, kappa light chain; also called TRC35 monoclonal antibody; hybridoma clone #35
